No end group written: not given here.
Legend:
Assay in all cases: AlphaScreen or HTRF
[1] = target: T1, H6-tagged OsTPL N-terminal domain (TPD), TPL(1–209) (rice, UniProt Q0J7U6 1-209)
T1 sequence (looked up): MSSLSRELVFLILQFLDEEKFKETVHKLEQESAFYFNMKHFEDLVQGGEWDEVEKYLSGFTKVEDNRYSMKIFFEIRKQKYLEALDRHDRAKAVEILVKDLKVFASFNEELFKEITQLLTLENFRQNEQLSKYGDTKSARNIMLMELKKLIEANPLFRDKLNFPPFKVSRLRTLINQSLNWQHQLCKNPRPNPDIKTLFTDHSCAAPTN

[2] = target: T2, H6-tagged Arabidopsis TPR1 N-terminal domain, TPR1(1–209) (Arabidopsis, UniProt Q0WV90 1-209)
T2 sequence (looked up): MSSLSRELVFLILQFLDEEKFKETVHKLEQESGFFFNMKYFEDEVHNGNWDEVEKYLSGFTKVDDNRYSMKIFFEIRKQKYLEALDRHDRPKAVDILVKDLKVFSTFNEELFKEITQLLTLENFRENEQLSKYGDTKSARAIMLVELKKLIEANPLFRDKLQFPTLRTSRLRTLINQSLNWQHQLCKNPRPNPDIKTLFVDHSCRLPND

[3] = target: T3, H6-tagged OsTPR1 N-terminal domain (TPD), TPR1(1–209) (rice, UniProt Q10NY2 1-209)
T3 sequence (looked up): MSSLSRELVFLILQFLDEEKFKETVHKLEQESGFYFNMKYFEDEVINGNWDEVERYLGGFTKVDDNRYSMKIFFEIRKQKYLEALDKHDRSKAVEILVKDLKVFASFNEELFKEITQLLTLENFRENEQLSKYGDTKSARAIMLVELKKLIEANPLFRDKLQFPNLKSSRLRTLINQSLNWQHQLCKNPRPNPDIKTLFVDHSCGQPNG

[4] = target: T4, H6-tagged OsTPR2 N-terminal domain (TPD), TPR2(1–210) (rice, UniProt Q5NBT9 1-210)
T4 sequence (looked up): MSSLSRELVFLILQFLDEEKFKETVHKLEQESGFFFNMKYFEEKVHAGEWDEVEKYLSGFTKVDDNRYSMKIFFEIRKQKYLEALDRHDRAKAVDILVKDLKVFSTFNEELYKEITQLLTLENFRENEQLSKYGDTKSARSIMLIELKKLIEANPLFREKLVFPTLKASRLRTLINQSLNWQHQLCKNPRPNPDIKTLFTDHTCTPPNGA

[5] = target: T5, H6-tagged Arabidopsis TPR2 N-terminal domain, TPR2(1–209) (Arabidopsis, UniProt Q9LRZ0 1-209)
T5 sequence (looked up): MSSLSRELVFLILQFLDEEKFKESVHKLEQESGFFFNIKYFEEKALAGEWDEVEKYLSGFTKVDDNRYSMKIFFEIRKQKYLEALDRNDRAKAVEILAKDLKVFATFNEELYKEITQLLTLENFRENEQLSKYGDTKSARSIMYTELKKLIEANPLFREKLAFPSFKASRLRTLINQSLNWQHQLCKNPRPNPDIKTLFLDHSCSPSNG

[6] = target: T6, H6-tagged Arabidopsis TPR3 N-terminal domain, TPR3(1–209) (Arabidopsis, UniProt Q84JM4 1-209)
T6 sequence (looked up): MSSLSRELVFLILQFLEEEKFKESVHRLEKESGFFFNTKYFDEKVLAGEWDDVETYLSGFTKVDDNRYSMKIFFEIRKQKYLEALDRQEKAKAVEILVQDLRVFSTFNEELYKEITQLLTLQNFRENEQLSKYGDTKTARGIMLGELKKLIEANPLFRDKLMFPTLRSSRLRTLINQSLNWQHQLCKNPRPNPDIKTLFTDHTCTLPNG

[7] = target: T7, H6-tagged Arabidopsis TPL N-terminal domain, TPL(1–209) (Arabidopsis, UniProt Q94AI7 1-209)
T7 sequence (looked up): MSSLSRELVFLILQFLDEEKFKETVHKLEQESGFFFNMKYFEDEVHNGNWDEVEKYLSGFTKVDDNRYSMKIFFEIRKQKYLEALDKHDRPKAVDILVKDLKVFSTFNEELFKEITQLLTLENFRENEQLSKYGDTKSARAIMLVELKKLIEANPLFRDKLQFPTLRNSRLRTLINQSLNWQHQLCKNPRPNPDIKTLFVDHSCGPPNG

[8] = target: T8, H6-tagged Arabidopsis TPR4 N-terminal domain, TPR4(1–209) (Arabidopsis, UniProt Q27GK7 1-209)
T8 sequence (looked up): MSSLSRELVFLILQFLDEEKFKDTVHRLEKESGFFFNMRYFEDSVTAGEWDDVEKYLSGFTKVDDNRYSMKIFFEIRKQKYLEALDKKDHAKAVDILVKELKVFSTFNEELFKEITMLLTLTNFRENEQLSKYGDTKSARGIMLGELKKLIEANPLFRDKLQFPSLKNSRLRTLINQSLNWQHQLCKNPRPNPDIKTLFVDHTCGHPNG

binding result [1]: binds | binding result [2]: binds | binding result [3]: binds | binding result [4]: binds | binding result [5]: binds | binding result [6]: binds | binding result [7]: binds | binding result [8]: binds
B1: biotinylated NINJA EAR motif peptide (12 amino acids, wild type) (peptide)
peptide: DNGLELSLGLSC
modifications: also: biotinylated, end not given here

Reference: PMC4646777 (Science Advances, 2015)
